Data published in paper PMC7761207, “Molecular Characterization of the Burkholderia cenocepacia dcw Operon and FtsZ Interactors as New Targets for Novel Antimicrobial Design” (Antibiotics, 2020).
Like-named read-outs stand apart in the source and are kept apart here.

T1: MraZ (Burkholderia cenocepacia J2315) (UniProt B4E6K1)
T1 sequence: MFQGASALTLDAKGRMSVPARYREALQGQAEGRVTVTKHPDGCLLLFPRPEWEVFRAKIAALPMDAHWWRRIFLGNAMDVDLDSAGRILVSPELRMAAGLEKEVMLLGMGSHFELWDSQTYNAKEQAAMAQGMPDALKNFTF

B1: B. cenocepacia J2315 FtsZ, BACTH hybrid (natural protein, Burkholderia cenocepacia J2315, UniProt B4E5Y7 1-398, looked up)
chain: MEFEMLETETNGTIIKVVGVGGAGGNAVQHMINRGVQGVDFIVMNTDAQALSRSRASSVIQLGNTGLGAGAKPEMGRAAAEEARERIADALRGAHMVFITAGMGGGTGTGAAPVVAQIAKEMGILTVGVVSKPFEFEGGKRMRVAEAGSQQLEDHVDSLIVVLNDKLFDVMGDDAEMDKCFQCADDVLNNAVAGIAEIINVDGLVNVDFEDVKTVMGEQGKAMMGTATVAGVDRARLAAEQAVASPLLEGVDLSGARGVLVNITSSRSLRLSETREVMNTIKSYAAEDATVIFGAVYDDAMGDALRVTVVATGLGRAAKKQQSAPMTLLRTGTDNQPVSAVSHGYAPAQHVSTADYGALDTPAVWRNSRETAASHVQALQEKGVDTYDIPAFLRKQAD
notes: FtsZ of Burkholderia cenocepacia J2315; gene amplified from genomic DNA; Cloned in all four BACTH vectors (pUT18, pUT18C, pKT25, pKNT25); by its place between BCAL3458 and BCAL3456 probably BCAL3457 (surmised); source: bacterial two-hybrid (BACTH) fusion, E. coli BTH101
B2: putative SulA (pBCA006) of B. cenocepacia J2315, BACTH hybrid (natural protein, Burkholderia cenocepacia J2315, UniProt B4EQP0 1-238, looked up)
chain: MHPALAHPEAIHPALWRASQLARPSVRGVDTGHLELTAELPGGGWPAGALIELLAPQPGIGELRLLAPVLARTAGKPVMLIQPPHALQPLALAYWGIDPSGFVTLPAPRTADALWAAEQALRAGTCAAVLLWQSHVRADALRRLNLAAQSGQALFYLFRPVAAARDASPAPLRLALAPKRDGIDVTFLKRRGPARDTPLFVPLSPSPILLNRHASLDRRASAAPQPRSVPATIAGAVA
notes: putative SulA, product of gene pBCA006 of Burkholderia cenocepacia J2315; Cloned in all four BACTH vectors; source: bacterial two-hybrid (BACTH) fusion, E. coli BTH101
B3: B. cenocepacia J2315 FtsA, BACTH hybrid (natural protein, Burkholderia cenocepacia J2315, UniProt B4E6I8 1-410, looked up)
chain: MSKDYKDLLVSLDIGTSKVVAIVAELKGEGHYEVIGLGQSESKGLKKGVVVNIEATVQSIQRALEEAELMADCKITNVFTGIAGSHIRSFNSSGMVAIKDKEVTQTDVARVIETAKAINIPTDQQVLHILTQEFIIDGQEDVREPIGMSGIRLEVKVHIVTGAVSAAQNIVKCVRRCGLEVNDLILQPLASSLAVLTEDEKDLGVVLVDIGGGTTDIAIFAEGAIRHTAVIPIAGDQITSDIAMALRTPTPDAEDIKVGYGIAKQALADPDEMVEVPGLGERGPRTLSRQALAAVIEPRVEELFSLVQQVVRESGYEELLSSGVVITGGASMMPGMVELGEDIFLKPVRIGAPEYAGGLSDVVRNPRYSTAMGLLVEGSAQRMRGRKVAVQSGNAGQVFSRMKEWFLSNF
notes: FtsA of Burkholderia cenocepacia J2315 (gene ftsA, BCAL3458); Cloned in all four BACTH vectors; source: bacterial two-hybrid (BACTH) fusion, E. coli BTH101
B4: B. cenocepacia J2315 ZipA, BACTH hybrid (natural protein, Burkholderia cenocepacia J2315, UniProt B4ECN7 1-424, looked up)
chain: MDELTLGLIGAGAVVVGGVVVYNAWQGAKVRRRMPRPMPEEAAEAMNRPERDEELPFIEPVRQPVRREPAAPVAAATAAAETARVEPTFGGAAPADTPADLQAEATGVDTSAESSEPAAGEEAVPAATHDAAAEPAEPTEPVMPAATTVSSAPPAIVDRRIDCIVPIRLTGPLPGDKILPVAQRLRRAGSKPVHIEGKPEGGQWELLQNGVRYEELRAAAQLANRSGALNELEFSEFVTGVQQFADAIDGAPEFPDMMETVAMARELDAFAAQCDAQLSINVMSDGAPWSANYVQAVASQDGLLLSRDGTRFVKLDAKQNPVFMLQFGDTNFLRDDLTYKGGNMITLVLDVPVAEEDILPFRLMCDYAKSLSERIGARVVDDSRRPLPESTLLAIEQQLMKLYAKLEEAGIPAGSPVTRRLFSQ
notes: ZipA of Burkholderia cenocepacia J2315 (gene zipA, BCAL2097); Cloned in all four BACTH vectors; source: bacterial two-hybrid (BACTH) fusion, E. coli BTH101

Experiments:
[1] = molecular target: B. cenocepacia FtsZ, protein of the sedimentation assays (Burkholderia cenocepacia); assay: co-sedimentation; with vesicles of E. coli total lipid extract (2 mg/mL); proteins 12 uM, 25 mM PIPES pH 6.8, 10 mM MgCl2, 2 mM GTP and/or ATP; 10 min 30 C; 20,000 x g 25 min 20 C
[2] = molecular target: T1, MraZ (Burkholderia cenocepacia J2315); assay: EMSA; settings: 20 mM Tris-HCl pH 7.5, 100 mM NaCl, 5 mM MgCl2, 0.1 mM DTT, 150 ng/uL BSA, 50 ng/uL herring sperm DNA, 30 min 37 C; 1.5% agarose in 0.5x TBE at 4 C
[3] = molecular target: B. cenocepacia J2315 FtsZ, BACTH hybrid (Burkholderia cenocepacia J2315) (UniProt B4E5Y7); assay: two-hybrid; BACTH (bacterial adenylate cyclase two-hybrid) in E. coli cya strain BTH101; T18 and T25 hybrids; beta-galactosidase on LB-IPTG-X-Gal and MacConkey plates and in liquid culture, 30 C; at least four-fold over BTH101(pUT18/pKT25) counted as an interaction
[4] = molecular target: B1; assay: as above
[5] = molecular target: T1, MraZ (Burkholderia cenocepacia J2315); assay: competition; settings: 20 mM Tris-HCl pH 7.5, 100 mM NaCl, 5 mM MgCl2, 0.1 mM DTT, 150 ng/uL BSA, 50 ng/uL herring sperm DNA, 30 min 37 C; 1.5% agarose in 0.5x TBE at 4 C
[6] = molecular target: B3; assay: two-hybrid; BACTH (bacterial adenylate cyclase two-hybrid) in E. coli cya strain BTH101; T18 and T25 hybrids; beta-galactosidase on LB-IPTG-X-Gal and MacConkey plates and in liquid culture, 30 C; at least four-fold over BTH101(pUT18/pKT25) counted as an interaction
[7] = molecular target: the molecule itself; assay: as above

Molecule: B. cenocepacia FtsZ, protein of the sedimentation assays (natural protein)
- percent of the protein in the pellet fraction [1]: 50%

Molecule: AAGTTGCACTAGCTCATTCATTTATAACGGTTTTTGGAATGAGGGGTCGCATGAGCATGTGCGCGTAAGTCCTTGTTCTAACTAACAAAATTCGTCAAAAAAGCGGGCCGCTCCCTTGACCGTGCCACACCCTTCCTCTAAAGTGGGAGACAGTGTGAGAAAGTGTATTTTTGTGTGATTTAGCAGGCTATTCCGGCTAAATTCTCAGCATTGAGCGGGTGCTTCGGTGCCCTGAACGGGAGAGCGGAAA (double strand) [BS2-6-Fam]
- binding [2]: binds

Molecule: B. cenocepacia J2315 FtsQ, BACTH hybrid (natural protein)
- β-galactosidase activity, fold over the control strain [3]: 16 fold

Molecule: GGAGCGGCCCGCTTTTTTGACGAATTTTGTTAGTTAGAACAAGGACTTACGCGCACATGCTCATGCGACCCCTCATTCCAAAAACCGTTATAAATGAATGAGCTAGTGCAACTTGTGAAGGTGATACGTGAGAAAGACGGCCCAGACGGGCGTGCGGACGGGGCTTTCGGGGGCGGGAAAACGAGGAGTGAGCGGGCGGTATCGGGGGCGGTGAACCGGGGCGGCGTCCCACGCCACCCCGGCGCCAATC (double strand) [BS1-6-Fam]
- binding [2]: no binding

Molecule: B. cenocepacia J2315 FtsE, BACTH hybrid (natural protein)
- β-galactosidase activity, fold over the control strain [4]: 50 fold

Molecule: B. cenocepacia J2315 ZapA, BACTH hybrid (natural protein)
- β-galactosidase activity, fold over the control strain [4]: 10 fold

Molecule: AAGTTGCACTAGCTCATTCATTTATAACGGTTTTTGGAATGAGGGGTCGCATGAGCATGTGCGCGTAAGTCCTTGTTCTAACTAACAAAATTCGTCAAAAAAGCGGGCCGCTCCCTTGACCGTGCCACACCCTTCCTCTAAAGTGGGAGACAGTGTGAGAAAGTGTATTTTTGTGTGATTTAGCAGGCTATTCCGGCTAAATTCTCAGCATTGAGCGGGTGCTTCGGTGCCCTGAACGGGAGAGCGGAAA (double strand) [BS2 unlabeled]
- binding [5]: binds

Molecule: B. cenocepacia J2315 FtsN, BACTH hybrid (natural protein)
- β-galactosidase activity, fold over the control strain [6]: 5 fold

Molecule: B1
- β-galactosidase activity, fold over the control strain [7]: 5 fold

Molecule: B2
- β-galactosidase activity, fold over the control strain ([4]; partners not purified): 25 fold

Molecule: B3
- β-galactosidase activity, fold over the control strain ([4]; partners not purified): 5 fold

Molecule: B4
- β-galactosidase activity, fold over the control strain ([4]; partners not purified): 4.5 fold
- β-galactosidase activity, fold over the control strain ([6]; partners not purified): 32 fold
